What all share (conditions): tags: HA tag (YPYDVPDYA) at C-terminus; label: biotin
Data set [1] has as its target TNFR1-4-2 six-zinc finger peptide (synthetic construct). The data set can be described thus: fluorescence ELISA; 50 uM ZnCl2, RT. Here is the method: (§1) DNA binding reactions contained the appropriate zinc finger peptide, biotinylated binding site (10 nM) and 5 μg competitor. DNA (sonicated salmon sperm DNA), in a total volume of 50 μl, which contained: 1×PBS (pH 7.0), 1.25×10⁻³ U high affinity anti-HA-Peroxidase antibody (Boehringer Mannheim), 50 μM ZnCl₂, 0.01 mg/ml BSA, and 0.5% Tween 20. Incubations are performed at room temperature for 40 minutes. Black streptavidin-coated wells are blocked with 4% marvel for 1 hour. Binding reactions are added to the streptavidin-coated wells and incubated for a further 40 minutes at room temperature. Wells are washed 5 times in 100 μl wash buffer (1×PBS (pH 7.0), 50 μM ZnCl₂, 0.01 mg/ml BSA, and 0.5% Tween 20), and finally 50 μl QuantaBlu peroxidase substrate solution (Pierce) is added to detect bound HA-tagged zinc finger peptide. ELISA signals are read in a SPECTRAmax GeminiXS spectrophotometer (Molecular Devices) and analysed using SOFTmax Pro 3.1.2 (Molecular Devices).
(§2) Zinc finger peptides are expressed using the T7 TNT Quick Coupled Transcription/Translation System for PCR templates (Promega) and assayed for DNA-binding by fluorescence ELISA, as described above in Examples 4 and 6. Sequences of the DNA target sites used in each binding reaction are shown below FIG. 3A.
On the technique in general: In an ELISA, binding on a coated surface is turned into a signal by an enzyme label.

The target in data set [2] is T1, TNFR1-7-9 six-zinc finger peptide (synthetic construct). Nature of the data set: fluorescence ELISA; control site; signal only in figure, text states specific binding. Here is the method: as §1, §2
Data set [3] addresses TNFR1-9-12 six-zinc finger peptide (synthetic construct). Described as above. Here is the method: as §1, §2
Data set [4] concerns the target T1, TNFR1-7-9 six-zinc finger peptide. Nature of the data set: fluorescence ELISA; 50 uM ZnCl2, RT. Here is the method: as §1, §2
The target of data set [5] is CXCR4-5-1 six-zinc finger peptide (synthetic construct). The data set can be described thus: fluorescence ELISA; 10 nM site, 50 uM ZnCl2, salmon sperm competitor, RT. The method, then: as §1
(§3) Zinc finger peptides are expressed using the T7 TNT Quick Coupled Transcription/Translation System for PCR templates (Promega) and assayed for DNA-binding by fluorescence ELISA (see above; FIG. 1). Binding is plotted vertically, on a relative scale. Sequences of the DNA target sites used in each binding reaction are shown below the figure. […]

The target in data set [6] is CXCR4-10-1 six-zinc finger peptide (synthetic construct). The data set is described as above. Here is the method:
as §1, §3

T1 sequence (chain, as listed by the source): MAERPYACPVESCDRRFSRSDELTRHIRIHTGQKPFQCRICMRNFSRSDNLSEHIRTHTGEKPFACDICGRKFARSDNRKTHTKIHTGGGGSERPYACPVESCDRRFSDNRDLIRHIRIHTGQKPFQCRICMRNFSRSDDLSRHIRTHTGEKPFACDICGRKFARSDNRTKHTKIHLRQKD
TNFR1-4-2 six-zinc finger peptide (synthetic construct), sequence (chain, as listed by the source): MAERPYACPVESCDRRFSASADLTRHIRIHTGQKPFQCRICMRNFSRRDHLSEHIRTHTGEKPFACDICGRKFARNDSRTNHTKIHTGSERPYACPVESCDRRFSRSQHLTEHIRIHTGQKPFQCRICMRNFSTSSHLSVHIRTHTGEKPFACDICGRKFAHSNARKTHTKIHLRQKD
TNFR1-9-12 six-zinc finger peptide (synthetic construct), sequence (chain, as listed by the source): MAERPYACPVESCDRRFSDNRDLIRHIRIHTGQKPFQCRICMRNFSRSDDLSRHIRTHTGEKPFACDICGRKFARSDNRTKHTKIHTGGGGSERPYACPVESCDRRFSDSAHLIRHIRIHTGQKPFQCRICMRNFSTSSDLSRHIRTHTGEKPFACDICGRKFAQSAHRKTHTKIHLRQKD
CXCR4-10-1 six-zinc finger peptide (synthetic construct), sequence (chain, as listed by the source): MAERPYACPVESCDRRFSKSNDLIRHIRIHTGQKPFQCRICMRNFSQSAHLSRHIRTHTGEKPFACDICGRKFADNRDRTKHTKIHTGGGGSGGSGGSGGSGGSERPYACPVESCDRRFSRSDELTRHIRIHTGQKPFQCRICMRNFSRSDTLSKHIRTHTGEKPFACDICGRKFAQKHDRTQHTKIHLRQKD
CXCR4-5-1 six-zinc finger peptide (synthetic construct), sequence (chain, as listed by the source): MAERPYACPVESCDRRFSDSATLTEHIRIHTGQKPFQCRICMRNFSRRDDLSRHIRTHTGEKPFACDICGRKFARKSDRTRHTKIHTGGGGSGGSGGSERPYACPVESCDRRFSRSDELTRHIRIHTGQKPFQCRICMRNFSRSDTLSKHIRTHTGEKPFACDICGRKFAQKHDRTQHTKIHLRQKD

B1: TNFR1 site 4-2 (dsDNA)
DNA 1: GTCGGATTGGTGGGTTGGGGGCACAAGGCA
DNA 2: TGCCTTGTGCCCCCAACCCACCAATCCGAC
Regarding B1, the binding result is “binds” in data set [1], “no binding” in data set [2] and “no binding” in data set [3].

B2: TNFR1 site 7-9 / 7-10 (dsDNA)
DNA 1: TGGAGGAGGAGGCCACAGGAGGCGGGAGGA
DNA 2: TCCTCCCGCCTCCTGTGGCCTCCTCCTCCA
For B2, the binding result in data set [4] is listed as “binds”.

B3: CXCR4-5-1 target site (dsDNA)
DNA 1: CCGCCCCAGCGGCGCATGCGCCGCGCTCGGAGCGTGTT
DNA 2: AACACGCTCCGAGCGCGGCGCATGCGCCGCTGGGGCGG
In the case of B3, the binding result in data set [5] is recorded as “binds”.

B4: CXCR4-10-1 target site (dsDNA)
DNA 1: B3 DNA 1
DNA 2: B3 DNA 2
For the molecule B4, the binding result in data set [6] is “binds”.

The values are drawn from patent US20040110923, “Nucleic acid binding polypeptides” (published 2004).
